# Laboratory results taken from the DeepSol protein solubility set.
# Experiment: soluble on expression in E. coli; label from the status in PepcDB or PDB records
row,Sequence,soluble on expression in E. coli
1,MSLITLPKISLIGSNIAKEGLEFVFAGPLAACSDCRVKNVCFNLEQGHRYRVTKVREQVNPCIIFNGDKVNTVEVEELEDYVNVQESKRIQEGAIITLKSMNCDYITCPNIEKCNLYYFKPDSKVMVKSIGKEIKCPKGYKMKQVAITYKEGHHHHHH,not soluble
2,EPFWADLQPRVAFVERGGSLWLNCSTNCPRPERGGLETSLRRNGTQRGLRWLARQLVDIREPETQPVCFFRCARRTLQARGLIRTFQRPDRVELMPLPPWQPVGENFTLSCRVPGAGPRASLTLTLLRGAQELIRRSFAGEPPRARGAVLTATVLARREDHGANFSCRAELDLRPHGLGLFENSSAPRELRTFSLS,soluble
3,MSAQAAKVSKKELNSNHDGADETSEKEQQEAIEHIDEVQNEIDRLNEQASEEILKVEQKYNKLRQPFFQKRSELIAKIPNFWVTTFVNHPQVSALLGEEDEEAMHYLTRVEVTEFEDIKSGYRIDFYFDENPYFENKVLSKEFHMNESGDPSSKSTEIKWKSGKDMTKRSSQTQNKASRKRQHEEPESFFTWFTDHSDAGADELGEVIKDDIWPNPLQYYLVPDM,soluble
4,MKITKLETVRVAERTNLLWVLVHTDEGITGLGETFFGAETVETYVHEYIAPRVIGRDPLQIDLLAQDLVGYLGFRSSGAEVRGNSAFDIALWDIFGKATNQPIAQLLGGFSRREIRTYNTCAGTEYIKKATGQQTANYGLSGGKDYDDLNGFLHRADELAHSLLEDGITAMKIWPFDAAAEKTRGQYISMPDLKSALEPFEKIRKAVGDKMDIMVEFHSMWQLLPAMQIAKALTPYQTFWHEDPIKMDSLSSLTRYAAVSPAPISASETLGSRWAFRDLLETGAAGVVMLDISWCGGLSEARKIASMAEAWHLPVAPHDCTGPVVLCASTHLSLNAPNALVQESVRAFYKTWYRDLVTALPEVKNGMITVPPGAGLGMELHPDIEKTFTVSRRFSDAASI,not soluble
5,MTVERLENGVIVQRNTNEIEISITLDTVHGKLEGSTGVNFFDHLLNTFCHYSGLGLRVSTCESKDGILHHLIEDFGISLGLAFRELFDYTKVRRFGEATVPMNEALVGCYVDLSGRPFFQKNFEFSVEKIEDMPVEGFEEFMCGFVNHARITVHFFKFFGKNDHHISESAMKSFGLAIAKALESSEKKTTKGVID,soluble
6,MEAWKKKKGLFKGARYQCTLEPIEREVLGNLAANISEVLISRAQSAPKDELAELTGMGGGHTEAPEDPGLARLLPDFEMQGDEEFDGDNSLLRSLHENDITRAKLANLQTIGQALGPDGSVFVTVTEEEAQAWVAGLNDIRLYLASSEVQDTEDRDALVEWLAFAQESLLTAMMGSLD,not soluble
7,SLGQADTERLLSDRKLVLLVDLDQTLIHTTNDNVPNNLKDVYHFQLYGPNSPWYHTRLRPGALEFLAKMHPYYELHICTFGARNYAHMIAQFLDKDGNFFSHRILSRDECFNATSKTDNLKALFPCGDSMVCIIDDREDVWNMASNLIQVKPYHFFRHTGDINAPPGMSKNELDGKGVDFKELMSQSQK,soluble
8,MAHHHHHHMQSTGGLPFYGNLYAGRVDSQNYVPPRQGGSGLLEVDKSLWDNPATRQKLQSCPYFALSDQVMFHNMDPVYLDPGLLSPEEHQLLLLFSRAYYEKWSVIHRRPPHALPRLRITYGSSKLLDEILFLLDVHPDVCEVLKKEYAVDDSTLIGMNPNLWSSAYLDPANMDHLSGRVLEFAGVPEPKRTKFFLLLDQMRRIKVHRRDLPNSEERVDVVPFCYGVTLYDFCKFLGITPYSGQLKVYDYVDLQGTARSETLKDEDSYFDYLVALFYRADVRSATLTDLADASDHTCRYTVTVEPFTTADRRVGRWF,soluble
9,MGSDKIHHHHHHMSATEKRRYEVLRAIVADYIASQEPVGSKSLLERHKLNVSSATIRNDMSVLESDGFIVQEHASSGRVPTERGYRLFVDSIHDIKPLSLAERRAILGFLEGGVDLEDVLRRSVQLLSQLTHQAAVVQLPTLKTARVKHCEVVPLSPMRLLLVLITDTGRVDQRNVELEEPLAAEEVNVLRDLLNGALGEKTLTAASDALEELAQQAPTDIRDAMRRCCDVLVNTLVDQPSDRLILAGTSNLTRLSRETSASLPMVLEALEEQVVMLKLLSNVTDLDQVRVHIGGENEDIELRSATVITTGYGSQGSALGGLGVVGPTYMDYSGTISKVSAVAKYVGRVLAGE,not soluble
